Data published in patent publication US20190106460A1, “BINDING INHIBITORS OF THE BETA. TRANSDUCIN REPEAT-CONTAINING PROTEIN” (priority 2011, published 2019).
Where two headings read alike, the source gives them in different places. Starred links: 1 amine or outer side, 2 acyl side, 3 side chain; linkers in the order of their positions; H or OH if unused. Suc = O=C(CCC(=O)[*:2])[*:1]

Columns and labels:
[1] = target: T1, Fbw7, Q969H0; assay: cell-based or functional assay
T1 chain: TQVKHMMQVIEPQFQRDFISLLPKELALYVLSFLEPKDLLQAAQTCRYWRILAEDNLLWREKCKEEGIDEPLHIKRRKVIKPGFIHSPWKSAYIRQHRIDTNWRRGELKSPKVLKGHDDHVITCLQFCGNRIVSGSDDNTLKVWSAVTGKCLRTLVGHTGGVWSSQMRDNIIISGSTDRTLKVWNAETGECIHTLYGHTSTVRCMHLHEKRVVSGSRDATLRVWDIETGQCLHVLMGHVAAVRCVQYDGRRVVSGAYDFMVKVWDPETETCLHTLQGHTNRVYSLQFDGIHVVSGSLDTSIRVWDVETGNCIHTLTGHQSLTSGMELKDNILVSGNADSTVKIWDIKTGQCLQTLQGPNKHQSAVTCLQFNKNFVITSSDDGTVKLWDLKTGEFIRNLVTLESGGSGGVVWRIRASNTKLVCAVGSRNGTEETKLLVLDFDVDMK

[2] = target: Skp2, Q13309; assay: cell-based or functional assay
[3] = target: βTrCP (tag cleaved and complexed with Skp1), Q9Y297; assay: FP competition vs fluorescein-IκB peptide
[4] = target: HisβTrCP/Skp1 and HisβTrCP/GSTSkp1 (immobilised on NTA Biacore chip), Q9Y297; assay: SPR, Biacore T200, βTrCP/Skp1 immobilised
[5] = target: βTrCP (tag cleaved and complexed with Skp1), Q9Y297; assay: FP competition vs fluorescein-IκB peptide; remark: listed apart in the source

Sequence of Skp2, Q13309 (Q13309 whole entry): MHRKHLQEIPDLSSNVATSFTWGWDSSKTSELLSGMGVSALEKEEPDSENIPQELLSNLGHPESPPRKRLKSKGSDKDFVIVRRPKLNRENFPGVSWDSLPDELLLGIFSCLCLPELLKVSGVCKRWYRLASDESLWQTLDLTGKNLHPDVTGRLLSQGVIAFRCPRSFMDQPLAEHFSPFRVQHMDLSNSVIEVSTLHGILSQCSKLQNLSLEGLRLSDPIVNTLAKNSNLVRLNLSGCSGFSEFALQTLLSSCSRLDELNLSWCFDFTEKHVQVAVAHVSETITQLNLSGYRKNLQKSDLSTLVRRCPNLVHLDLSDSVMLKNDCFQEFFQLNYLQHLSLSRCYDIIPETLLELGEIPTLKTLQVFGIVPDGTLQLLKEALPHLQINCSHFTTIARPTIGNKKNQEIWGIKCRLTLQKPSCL
Sequence of βTrCP (tag cleaved and complexed with Skp1), Q9Y297 (Q9Y297 175-605, chain 1 of 2): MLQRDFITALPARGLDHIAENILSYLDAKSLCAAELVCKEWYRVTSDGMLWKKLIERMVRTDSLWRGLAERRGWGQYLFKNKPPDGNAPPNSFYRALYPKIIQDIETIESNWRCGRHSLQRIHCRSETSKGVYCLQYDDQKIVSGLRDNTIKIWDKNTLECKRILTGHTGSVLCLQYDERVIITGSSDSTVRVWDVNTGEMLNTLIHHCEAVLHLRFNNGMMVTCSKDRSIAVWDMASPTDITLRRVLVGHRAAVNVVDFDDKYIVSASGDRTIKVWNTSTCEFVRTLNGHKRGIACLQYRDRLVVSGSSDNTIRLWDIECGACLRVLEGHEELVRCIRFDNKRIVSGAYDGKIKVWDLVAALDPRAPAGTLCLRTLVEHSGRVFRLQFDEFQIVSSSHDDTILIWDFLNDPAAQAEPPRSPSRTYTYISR
Sequence of βTrCP (tag cleaved and complexed with Skp1), Q9Y297 (P63208 whole entry, chain 2 of 2, further chain): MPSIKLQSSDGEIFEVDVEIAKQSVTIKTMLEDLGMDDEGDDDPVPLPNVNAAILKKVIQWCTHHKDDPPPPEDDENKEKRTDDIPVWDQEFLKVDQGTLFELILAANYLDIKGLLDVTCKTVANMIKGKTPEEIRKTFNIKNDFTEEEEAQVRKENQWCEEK
Sequence of HisβTrCP/Skp1 and HisβTrCP/GSTSkp1 (immobilised on NTA Biacore chip), Q9Y297 (Q9Y297 175-605, chain 1 of 2): as the sequence (Q9Y297 175-605, chain 1 of 2) above
Sequence of HisβTrCP/Skp1 and HisβTrCP/GSTSkp1 (immobilised on NTA Biacore chip), Q9Y297 (P63208 whole entry, chain 2 of 2, further chain): as the sequence (P63208 whole entry, chain 2 of 2, further chain) above

B1: Suc-EGYFE-NH2 (peptide)
peptide: Suc-EGYFE-NH2
SMILES: NC(=O)[C@H](CCC(=O)O)NC(=O)[C@H](Cc1ccccc1)NC(=O)[C@H](Cc1ccc(O)cc1)NC(=O)CNC(=O)[C@H](CCC(=O)O)NC(=O)CCC(=O)O
[1]
  % Inhibition Fbw7 @ 10 µM: 0%
  % Inhibition Fbw7 @ (100 µM): 0%
[2]
  % Inhibition Skp2 @ 10 µM: 11%
  % Inhibition Skp2 @ (100 µM): 28%
[3]
  IC50: 1000 nM
[4]
  Kd: 537 nM
[5]
  IC50: 1040 nM
